Measurements from article PMC12136491, “Establishment of an efficient one-step enzymatic synthesis of cyclic-2,3-diphosphoglycerate” (Frontiers in Microbiology, 2025).

Tests used:
purified protein [1] = substrate: Nc1ncnc2c1ncn2[C@@H]1O[C@H](COP(=O)(O)OP(=O)(O)OP(=O)(O)O)[C@@H](O)[C@H]1O; experiment: purified protein; format: biochemical, Methanothermus fervidus; conditions: 10 mM 2,3DPG constant, Mg2+/ATP molar ratio 0.5, 50 mM MES/KOH pH 6.5, 400 mM KCl, 55°C, two-substrate Michaelis-Menten fit
purified protein [2] = substrate: O=C(O)[C@@H](COP(=O)(O)O)OP(=O)(O)O; experiment: purified protein; format: biochemical, Methanothermus fervidus; conditions: 10 mM ATP constant, Mg2+/ATP molar ratio 0.5, 50 mM MES/KOH pH 6.5, 400 mM KCl, 55°C, two-substrate Michaelis-Menten fit

B1: MfcDPGS (cyclic-2,3-diphosphoglycerate synthetase) (Methanothermus fervidus DSM 2088) (protein)
chain: GETKKMICLVDGEHYFPVVKDSIEILDDLEHIDVVAVVFIGGTEKLQIEDPKEYSEKLGKPVFFGPDPKKIPYDVIKKCVKKYNADIVMDLSDEPVVDYTKRFRIASIVLKEGAVYQGADFKFEPLTEYDVLEKPSIKIIGTGKRIGKTAVSAYAARVIHKHKYNPCVVAMGRGGPREPEIVEGNKIEITAEYLLEQADKGVHAASDHWEDALMSRILTVGCRRCGGGMLGDTFITNVKRGAEIANKLDSDFVIMEGSGAAIPPVKTNRQIVTVGANQPMININNFFGPFRIGLADLVIITMCEEPMATTEKIKKVEKFIKEINPSANVIPTVFRPKPVGNVEGKKVLFATTAPKVVVGKLVNYLESKYGCDVVGVTPHLSNRPLLRRDLKKYINKADLMLTELKAAAVDVATRVAIEAGLDVVYCDNIPVVIDESYGNIDDAIIEVVEMAIDDFKNNR
notes: heat precipitation and SEC; homodimer (119 kDa)
Protein B1 has a Km (purified protein [1]) of 550 ± 80 µM and a Km (purified protein [2]) of 1520 ± 400 µM.
